Results reported in the supplement of paper PMC10567573.

B1: EPB41L3 (parent)
chain: SMQCKVILLDGSEYTCDVEKRSRG
B2: GNAI1 (parent)
chain: WIHCFEGVTAIIFCVALSDYDLVL

Variants of: B1
Assay: protein stability index of a GFP-peptide fusion (GPS, HEK-293T) (PSI 1-6); higher = more stable
Conditions: c terminus: a fixed tail appended
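Note: lentivirally expressed fusions sorted by FACS into six bins by GFP to DsRed ratio, PSI derived from sequencing read proportions per bin multiplied by bin number.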

Protein stability index: each site, then its substitutions
D17: H 2.51; L 3.38; P 3.08; C 2.45; T 2.59; E 2.84; M 1.1; N 2.36; I 1.89; Y 1.61; R 3.07; S 2.21; W 2.06; G 2.34
K20: S 2.52; P 2.49; M 2.04; I 1.21; D 3.36; H 2.87; A 2.06; Q 2.6; V 2.11; N 3.04; L 1.67; T 3.66; E 3.26; W 1.02; F 1.43; C 2.15
G24: T 3.25; F 2.47; W 2.88; I 1.98; M 2.51; N 3.27; L 2.47; V 2.83; K 2.99; A 3.43; R 2.84; P 2.47; Q 2.17; C 2.56; E 3; D 2.37; S 3.48; H 2.47; Y 2.25
T15: D 3.38; I 2.67; L 1.67; R 2.45; Y 2.58; P 3.37; E 2.45; M 2.49; F 1.63; S 3.03; H 1.98; Q 3.19; V 2.06
S22: Y 2.38; D 2.52; W 2.11; N 3.47; E 3.75; L 2.08; H 2.89; G 3.02; M 2.4; T 3.63; V 2.12; I 2.16; R 3.11; P 2.56; A 2.29; F 2.38; C 2.09
V6: P 4.68; W 2.59; S 4.07; L 2.44; N 4.5; G 3.61; F 2.76; D 4.38; A 2.1; T 3.71; E 4.55; Y 2.95; I 2.2; Q 2.97; H 2.56; M 3.36; C 2.07; R 3.62
I7: H 3.03; A 3.03; T 3.64; W 3.62; Y 2.15; D 4.08; F 2.39; N 3.43; R 3.45; S 3.91; L 2.63; Q 3.13
V18: A 3.5; Q 3.83; E 3.18; K 4.16; S 3.69; F 2.1; L 1.79; Y 2.29; C 2.29; T 3.38; I 2.82; D 3.36; N 3.24; G 2.96; H 2.72; M 2.62; R 2.92; P 3.57
E13: V 1.86; L 2.7; C 1.81; Y 1.9; T 2.33; H 2.75; M 2.09; S 3.27; G 2.79; K 2.41; W 2.05; I 1.51; Q 2.98; P 3.48; N 1.75; D 2.37; A 2.14
C16: E 3.52; I 2.77; N 2.84; W 2.01; F 2.66; T 2.55; M 2.41; H 3.53; P 2.66; S 2.65; V 3.7; G 3.19; L 2.23; A 2.95; D 3.44; K 3.07
S12: M 1.98; V 2.05; P 2.4; Q 2.92; I 2.39; Y 1.78; D 3.08; R 2.99; H 2.34; K 3.51; T 2.16; E 4.38; W 1.94; N 2.91; C 2.14; G 2.9; A 3.39
G11: Q 2.87; Y 2.51; E 2.03; M 1.73; P 3.22; N 3.26; C 2.41; A 2.58; W 1.68; R 2.64; V 2.64; I 1.99; D 2.98; K 2.94; L 2.75; H 3.67; T 2.76
E19: R 2.15; I 1.93; Q 2.5; W 2.11; L 1.99; K 2.34; G 2.51; N 2.29; S 2.6; H 1.73; Y 2.14; P 2.11; V 2.35; D 2.19; T 1.54; A 2.17; M 2.14; C 2.13; F 1.19
D10: M 1.5; L 1.67; H 1.5; P 2.66; W 1.09; E 2.24; A 2.07; F 2.14; T 2.75; G 2.14; Y 1.77; R 2.03; N 1.89; S 2.04; Q 2.41; K 3.15; V 1.62
Y14: G 3.69; V 3.15; R 3.66; D 3.81; F 2.21; W 1.9; A 3.7; T 2.81; E 3.83; P 3.66; S 4.43; I 2.74; K 3.97; C 2.67; L 1.84; N 3.7
R21: K 3.56; E 3.09; L 2.31; H 2.72; G 2.73; D 3.49; M 1.88; Y 2.09; Q 2.55; W 1.57; I 1.88; T 2.84; N 1.92; P 3.06; V 2.19; C 2.86
L9: C 2.79; K 3.81; R 3.03; G 3.72; H 3.44; N 3.92; S 2.85; V 3.31; T 3.51; Y 2.41; F 2.83; E 4.28; A 3.6; P 3.71; I 2.97; D 4.09; M 3.2; Q 3.94
L8: F 4.39; D 4.41; N 4.24; Q 4.25; I 2.17; S 3.79; M 3.13; K 3.43; Y 3.13; P 4.33; E 4.05; R 2.83; T 2.67; C 3.13; H 3.66; A 3.31
R23: Y 2.22; H 3.31; S 3.17; A 3.05; F 2.07; Q 2.87; T 3.61; N 2.52; L 2.8; E 2.63; M 2.72; I 2.45; P 2.51; K 3.39; C 3.04; D 3.51; V 2.88
K5: Q 3.06; P 3.85; S 3.04; R 2.06; N 3.06; T 2.54; W 2.59; Y 3.16

Variants of: B2
Assay: as above
Conditions: c terminus: a fixed tail appended

Protein stability index of substitutions, site by site:
W1: D 3.44; I 4.21; Q 1.72; H 3.09; L 3.13; F 2.29; N 2.99; K 3.4; M 2.91; G 2.14; A 3.11; P 3.51; E 2.82
